Sequences and labels used below:
B1: Human GITR (receptor)
chain: QRPTGGPGCGPGRLLLGTGTDARCCRVHTTRCCRDYPGEECCSEWDCMCVQPEFHCGDPCCTTCRHHPCPPGQGVQSQGKFSFGFQCIDCASGTFSGGHEGHCKPWTDCTQFGFLTVFPGNKTHNAVCVPGSPPAEP
B2: Human OX40 (receptor)
chain: LHCVGDTYPSNDRCCHECRPGNGMVSRCSRSQNTVCRPCGPGFYNDVVSSKPCKPCTWCNLRSGSERKQLCTATQDTVCRCRAGTQPLDSYKPGVDCAPCPPGHFSPGDNQACKPWTNCTLAGKHTLQPASNSSDAICEDRDPPATQPQETQGPPARPITVQPTEAWPRTSQGPSTRPVEVPGGRA
B3: Urelumab (antibody, V domains shown)
VH: QVQLQQWGAGLLKPSETLSLTCAVYGGSFSGYYWSWIRQSPEKGLEWIGEINHGGYVTYNPSLESRVTISVDTSKNQFSLKLSSVTAADTAVYYCARDYGPGNYDWYFDLWGRGTLVTVSS
VL: EIVLTQSPATLSLSPGERATLSCRASQSVSSYLAWYQQKPGQAPRLLIYDASNRATGIPARFSGSGSGTDFTLTISSLEPEDFAVYYCQQRSNWPPALTFGGGTKVEIK
B4: cyno 4-1BB overexpressed on CHO cells (receptor)
chain: LQDLCSNCPAGTFCDNNRSQICSPCPPNSFSSAGGQRTCDICRQCKGVFKTRKECSSTSNAECDCISGYHCLGAECSMCEQDCKQGQELTKKGCKDCCFGTFNDQKRGICRPWTNCSLDGKSVLVNGTKERDVVCGPSPADLSPGASSATPPAPAREPGHSPQIIFFLALTSTVVLFLLFFLVLRFSVVKRSRKKLLYIFKQPFMRPVQTTQEEDGCSCRFPEEEEGGCEL

The target of assay [1] is HZ-L-Yr-16-Fc. Nature of the assay: ELISA. In general terms: ELISA stands for enzyme-linked immunosorbent assay.
Assay [2] has as its target B4. Nature of the assay: flow cytometry on cells. (Flow cytometry measures light scatter and fluorescence of single cells or particles in a stream.)
Assay [3] deals with HZ-L-Yr-16-Fc. The assay can be described thus: flow cytometry on cells.

The source of these data is article PMC8237747 (Journal for Immunotherapy of Cancer, 2021).

With B1, the binding result in the assay with HZ-L-Yr-16-Fc [1] is listed as “no binding”. Consider B2, for which, in the assay with HZ-L-Yr-16-Fc [1], the binding result is recorded as “no binding”. Consider B3, for which, in assay [2], the binding result is “no binding”.

For the molecule B4, the binding result with HZ-L-Yr-16-Fc [3] is “binds”.
